In patent US20180335433A1, “COMPOSITIONS TARGETING PKC-THETA AND USES AND METHODS OF TREATING PKC-THETA PATHOLOGIES, ADVERSE IMMUNE RESPONSES AND DISEASES” (La Jolla Institute for Allergy and Immunology, priority 2011, published 2018):

Columns and labels:
[1] = system: endogenous PKCθ; test: IS localization in OT-II CD4+ T cells conjugated with Ova-loaded APCs (confocal); assay type: cell-based, mouse; conditions: OT-II TCR-Tg CD4+ T cells
Protocol: (FIG. 6A) OT-II CD4^+ T cells were infected with retrovirus expressing Myc-tagged V3 domain, V3 mutated at P330/1/4/6A (V3-4PA), or PR motif-deleted V3 (V3-ΔPR). Infected cells (green) were harvested, stimulated, and fixed. Conjugates were stained with anti-Myc plus a secondary Alexa 555-coupled antibody (orange), and anti-PKCθ plus a secondary Alexa 647-coupled antibody (red). Cells were analyzed as in FIG. 1A. (FIG. 6B) Quantitative analysis of the results shown in (FIG. 6A) from 30-50 T-APC conjugates. ** p<0.05. (FIG. 6C) MCC-specific T hybridoma cells were cotransfected with indicated vector, together with RE/AP-Luc and β-Gal reporter plasmids. Cells were stimulated and analyzed as in FIG. 1C. (FIG. 6D) Naïve CD4^+ T cells from B6 mice stimulated with anti-CD3 plus anti-CD28 mAbs and differentiated in vitro under Th1-, Th2- or Th17-polarizing conditions were retrovirally transduced with empty pMIG vector, or with the indicated PKCθ V3 vectors. Cytokine-producing cells were analyzed by intracellular staining 8 h after restimulation. Right panels represent cumulative data showing percentage of cytokine-producing cells by intracellular staining. (FIG. 6E) MCC-specific T hybridoma cells were cotransfected with the indicated plasmids, together with NFAT luciferase reporter and a β-Gal reporter plasmid. Cells were incubated with fibroblasts that express I-E^K and B7-1 in the absence or presence of MCC peptide for 6 hrs. Normalized luciferase activity was determined in triplicates.
Full-length human PKCθ and its derivatives were cloned as a GFP fusion protein in the pMX retroviral vector. Retroviral supernatants were used to infect preactivated CD4^+ T cells from PKCθ^−/− or WT OT-II mice. Transduced cells were rested for an additional three days. On the day of experiment, APC were prepared from WT B6 splenocytes that were depleted of CD4^+ T cells using anti-CD4 (L3T4) mAb-coated beads. T-depleted APC were stained with 20 μM of cell tracker blue (CMAC) and then pulsed with 5 μM Ova peptide, respectively, for 30 min at 37° C. T cell-APC conjugation was carried out at 37° C. for 20 min before fixation with 4% paraformaldehyde and permeabilization with PBS supplemented with 1% BSA and 0.1% Triton X-100. […] Immunofluorescene images were captured using a Marianas digital fluorescence-microscopy system (Intelligent Imaging Innovations) as described (Becart, S. et al. Immunity 29, 704-719 (2008)).
Given the critical role of the PKCθ V3 domain in the enzyme's CD28 association, IS localization, and activation of downstream targets, ectopic expression of the isolated V3 domain was analyzed for interference with the localization and function of PKCθ in stimulated T cells. […]

[2] = system: CD28 response element (RE/AP) reporter gene; test: RE/AP luciferase reporter assay in MCC-specific T hybridoma cells; assay type: cell-based
Protocol: (§1) (FIG. 6A) OT-II CD4^+ T cells were infected with retrovirus expressing Myc-tagged V3 domain, V3 mutated at P330/1/4/6A (V3-4PA), or PR motif-deleted V3 (V3-ΔPR). Infected cells (green) were harvested, stimulated, and fixed. Conjugates were stained with anti-Myc plus a secondary Alexa 555-coupled antibody (orange), and anti-PKCθ plus a secondary Alexa 647-coupled antibody (red). Cells were analyzed as in FIG. 1A. (FIG. 6B) Quantitative analysis of the results shown in (FIG. 6A) from 30-50 T-APC conjugates. ** p<0.05. (FIG. 6C) MCC-specific T hybridoma cells were cotransfected with indicated vector, together with RE/AP-Luc and β-Gal reporter plasmids. Cells were stimulated and analyzed as in FIG. 1C. […] Cytokine-producing cells were analyzed by intracellular staining 8 h after restimulation. […] Normalized luciferase activity was determined in triplicates.
(§2) The CD28 response element (RE/AP)- or NFAT-luciferase (Luc) reporter genes have been described (Coudronniere, N. et al. Proc Natl Acad Sci USA 97, 3394-3399 (2000)). […] The cells were the lysed and Luc activity was quantitated and normalized to the activity of a cotransfected β-galactosidase (β-Gal) reporter gene.
(§3) To determine whether ectopic V3 expression also interfered with PKCθ-dependent TCR/CD28 signaling, the effects of V3 on activation of reporter genes and on T cell differentiation into effector Th cells were analyzed. […]

[3] = system: NFAT reporter gene; test: NFAT luciferase reporter assay in MCC-specific T hybridoma cells; assay type: cell-based
Protocol: as §1, §2, §3

[4] = system: B6 CD4+ T cells, Th2 differentiation; test: In vitro Th2 differentiation of retrovirally transduced CD4+ T cells; assay type: cell-based, mouse; conditions: ectopic expression, Th2 differentiation conditions
Protocol: as §1, with “triplicates. […]” for “triplicates.”
Investigators have reported that the Th2 and Th17 immune responses are compromised in PKCθ^−/− mice, whereas the Th1 response remains relatively intact (Marsland, B. J. et al. J Exp Med 200, 181-189 (2004); Salek-Ardakani, S. et al. J Immunol 173, 6440-6447 (2004); Salek-Ardakani, S., et al. J Immunol 175, 7635-7641 (2005)). Therefore, ectopic expression of V3 was analyzed for inhibition of Th differentiation. […]

[5] = coexpressed at increasing levels together with WT PKCθ

B1: V3 domain: amino acid 282-379 of human PKCθ with N-terminal Myc tag, expressed from pMIG retroviral vector (protein)
chain: GINQKLMAEALAMIESTQQARCLRDTEQIFREGPVEIGLPCSIKNEARPPCLPTPGKREPQGISWESPLDEVDKMCHLPEPELNKERPSLQIKLKIED
modifications: left off: small tags and cut ends
notes: amino acid 282-379 of human PKCθ with N-terminal Myc tag, expressed from pMIG retroviral vector
- effect on IS localization of endogenous PKCθ [1]: sequestered from the IS
- subcellular localization of the transduced V3 protein [1]: translocated to and selectively localized in the IS
- inhibition of RE/AP reporter gene activity stimulated by WT PKCθ [2, 5]: inhibited in a dose-dependent manner
- activation of RE/AP reporter gene ([2]; expression of the V3 alone): did not activate
- inhibition of NFAT reporter gene activity stimulated by WT PKCθ [3, 5]: inhibited in a dose-dependent manner
- activation of NFAT reporter gene ([3]; expression of the V3 alone): did not activate
- inhibition of Th2 differentiation [4]: ~75%
